Reference: US20200223910A1 (STERLING IP, published 2020)
Numbering of substitutions follows the chain as printed. Names may count otherwise.

B1: IgG4 165_13_C3 (antibody, V domains shown)
VH: QVQLVESGGGLVQPGRSLRLSCAASGFTFDDYAMHWVRQAPGKGLEWVSGISGSGGSTYYADSVKGRFTISRDNAKNSLYLQMNSLRAEDTALYYCAKSYQSDEDAFDIWGQGTMVTVSS
VL: DIQMTQSPASLPTPVGDRVTITCRASQYIQGFLNWYQQKPGKAPKLLIYDASNLETGVPSRFSGSGSGTDFTLTISSLQPEDFATYYCQQSYSTPQTFGQGTKVDIKR
notes: Human IgG4 with hinge modification S241P; also called MAb C3; C3 Mab
B2: 160_01_A4 IgG4 (antibody, V domains shown)
VH: EVRLVQSGAEVKKPGASVKVSCKVSGYTLTELSMHWVRQAPGKGLEWMGGFDPEDGETIYAQKFQGRVTMTEDTSTDTAYMELSSLRSEDTAVYYCATAQKETLGNAIWGQGTLVTVSS
VL: B1 VL with P14S, K45R, D50A, N53T, E55Q, T56D, S67Y, Q96W, D105E

Assays:
human TNR rCd4-His-FBG [1] = target: T1, human TNR rCd4-His-FBG (rat; human, UniProt P05540 209-391; Q92752 1128-1358, limits assumed); experiment: SPR, 37 C, purified IgG4 captured on anti-human Fc
T1 construct: domain: domains 3 and 4;domain: FBG; also called Hu TNR; hTNR; not shown: 6His tag
T1 sequence (chain (part 1 of 2), looked up): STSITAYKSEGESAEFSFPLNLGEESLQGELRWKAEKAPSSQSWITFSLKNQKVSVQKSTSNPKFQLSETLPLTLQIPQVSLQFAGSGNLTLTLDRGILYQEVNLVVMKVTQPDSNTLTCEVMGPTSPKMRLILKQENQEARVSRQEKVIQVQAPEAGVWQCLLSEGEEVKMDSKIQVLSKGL
T1 sequence (chain (part 2 of 2), looked up): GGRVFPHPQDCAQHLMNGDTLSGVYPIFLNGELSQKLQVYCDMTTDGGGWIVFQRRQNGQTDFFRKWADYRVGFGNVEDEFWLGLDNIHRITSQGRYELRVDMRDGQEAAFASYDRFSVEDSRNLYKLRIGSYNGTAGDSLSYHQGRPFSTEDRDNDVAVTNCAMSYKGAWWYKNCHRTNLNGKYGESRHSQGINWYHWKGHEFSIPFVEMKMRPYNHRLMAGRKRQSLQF
Method: (§1) Detailed kinetic parameters were evaluated for the 9 prioritised IgG4 antibodies. Binding characteristics were determined for interaction with human, […] TNC rCD4-His-FBG, and human TNR rCD4-His-FBG. Kinetic assays followed essentially the same protocols as for the off-rate determinations described above, with some modifications as follows. To improve the accuracy of kinetic parameter determination, anti-human Fc IgG was immobilised at lower levels (2229 RU), resulting in a corresponding reduction in the amount of anti-FBG IgG4 captured. Purified anti-FBG IgG4 was diluted to a concentration of 3.5 nM in PBS, pH 7.4, 0.05% Tween-20 and injected into FC2 at a flow rate of 10 μl/min, 60 s contact time. […] Antigens were prepared by doubling dilution in PBS, pH 7.4, 0.05% Tween-20 (highest concentration 100 nM except mouse rCD4-His-FBG which was 7 nM). Assays were performed at 37° C. (30 μl/min, 120 s contact time; mouse rCD4-His-FBGFBG 10 μl/min, 60 s contact time), with both the flow cell and injection chamber equilibrated to this temperature. As before, kinetic parameters were determined by reference cell subtraction and fitting the sensogram experimental data assuming a 1:1 interaction using BIAevaluation software (GE, BR-1005-97).

human TNC rCd4-His-FBG [2] = target: T2, human TNC rCd4-His-FBG (rat; human, UniProt P05540 209-391; P24821 1974-2201, limits assumed); experiment: SPR BIAcore T200, 37 C, IgG4 captured on anti-human Fc, rCd4-His-FBG injected, 1:1 fit
T2 construct: domain: domains 3 and 4;domain: FBG; C-terminal FBG fusion made in HEK293F cells; biotinylated in the ELISA and HTRF assays; also called Hu TNC; hTNC; not shown: 6His tag
T2 sequence (chain (part 1 of 2), looked up): T1 sequence (chain (part 1 of 2), looked up)
T2 sequence (chain (part 2 of 2), looked up): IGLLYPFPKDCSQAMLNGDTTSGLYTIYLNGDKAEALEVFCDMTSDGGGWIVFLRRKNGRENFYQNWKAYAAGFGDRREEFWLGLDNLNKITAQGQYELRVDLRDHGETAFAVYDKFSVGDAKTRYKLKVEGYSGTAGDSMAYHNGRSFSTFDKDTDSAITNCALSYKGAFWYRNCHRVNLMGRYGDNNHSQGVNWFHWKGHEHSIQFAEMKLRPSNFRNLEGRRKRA
Method: (§2) For the kinetic assay ˜1,500-1,900 response units (RU) of anti-human Fc IgG (GE, BR-1008-39) was immobilised in all flow-cells (FC1-4) on a Series S CM5 sensor chip (BR-1005-30) using EDC/NHS cross-linking chemistry according to the amine coupling kit protocol (GE, BR-1000-50). […] Antibody capture levels ranged typically from 70 RU (for TNR interactions) to 90 RU (for TNC interactions).
(§3) A 1:1 dilution series of antigen in HBS-P+ (30 nM of human and mouse TNC rCd4-His-FBG and 480 nM of human TNR rCd4-His-FBG) was injected with a flow-path via the reference flow cell (FC1 and FC3, respectively) and the antibody capture flow cell (FC2 and FC4, respectively) with a flow rate of 30 μl/min. The association and dissociation phases were measured over a 3.5 and 30 min time period, respectively, for human and mouse TNC rCd4-His-FBG, and 2 and 8 min time period for human TNR rCd4-His-FBG. For interaction analysis with human and mouse TNC rCD4-His-FBG regeneration of free capture antibody surfaces after each antigen injection was done by injection of 3 M MgCl 2 for 60 s and for each sample injection a fresh NSCT antibody was captured. Carry over of antigen was prohibited by an extra needle wash step with 50% DMSO before every injection. Runs were performed at the more physiologically relevant temperature of 37° C.
(§4) Kinetic parameters were determined by reference cell subtraction and fitting the sensorgram experimental data to a 1:1 interaction model using the BIAcore T200 Evaluation software version 2.0.

mouse TNC rCd4-His-FBG [3] = target: T3, mouse TNC rCd4-His-FBG (rat; mouse, UniProt P05540 209-391; Q80YX1 1883-2110, limits assumed); experiment: as above
T3 construct: domain: domains 3 and 4;domain: FBG; Biotinylated in the capture ELISA; also called Mu TNC; mTNC; not shown: 6His tag
T3 sequence (chain (part 1 of 2), looked up): T1 sequence (chain (part 1 of 2), looked up)
T3 sequence (chain (part 2 of 2), looked up): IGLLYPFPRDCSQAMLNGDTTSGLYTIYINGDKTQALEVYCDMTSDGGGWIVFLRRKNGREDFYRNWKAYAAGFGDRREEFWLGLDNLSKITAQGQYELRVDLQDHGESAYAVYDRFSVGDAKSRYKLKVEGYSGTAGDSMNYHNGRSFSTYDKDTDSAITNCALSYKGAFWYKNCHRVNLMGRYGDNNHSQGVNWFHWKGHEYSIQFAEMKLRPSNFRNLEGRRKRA
Method: as §2, §3, §4

human TNR rCd4-His-FBG [4] = target: T1, human TNR rCd4-His-FBG; experiment: as above
Method: as §2, §3, §4

human TNC rCd4-His-FBG [5] = target: T2, human TNC rCd4-His-FBG; experiment: SPR BIAcore T200, 37 C, IgG4 captured on anti-human Fc, rCd4-His-FBG injected, 1:1 fit; relative to theoretical Rmax
Method: as §2, §3, §4

mouse TNC rCd4-His-FBG [6] = target: T3, mouse TNC rCd4-His-FBG; experiment: as above
Method: as §2, §3, §4

human TNR rCd4-His-FBG [7] = target: T1, human TNR rCd4-His-FBG; experiment: as above
Method: as §2, §3, §4

human TNC rCd4-His-FBG [8] = target: T2, human TNC rCd4-His-FBG; experiment: SPR, 37 C, purified IgG4 captured on anti-human Fc
Method: as §1

Binder	fold lower affinity than to human TNC FBG (human TNR rCd4-His-FBG [1]) [fold]	Kd (human TNC rCd4-His-FBG [2]) [nM]	koff (human TNC rCd4-His-FBG [2]) [s⁻¹]	kon (human TNC rCd4-His-FBG [2]) [M⁻¹ s⁻¹]	Kd (mouse TNC rCd4-His-FBG [3]) [nM]	koff (mouse TNC rCd4-His-FBG [3]) [s⁻¹]	kon (mouse TNC rCd4-His-FBG [3]) [M⁻¹ s⁻¹]	Kd (human TNR rCd4-His-FBG [4]) [nM]	koff (human TNR rCd4-His-FBG [4]) [s⁻¹]	kon (human TNR rCd4-His-FBG [4]) [M⁻¹ s⁻¹]	SA, surface activity (human TNC rCd4-His-FBG [5]) [%]	SA, surface activity (mouse TNC rCd4-His-FBG [6]) [%]	SA, surface activity (human TNR rCd4-His-FBG [7]) [%]	Kd (human TNC rCd4-His-FBG [8]) [nM]
B1	> 70	1.24	0.0042	3.4e+06	0.433	0.004	9.27e+06	52.7	0.059	1.13e+06	298	303	184	
B2	> 70													< 1
